Source: patent US20130236467A1 (published 2013)
Numbering of substitutions follows the chain as printed.

B1: BPC 1856, anti-HGF S260116C12VL1 Chimera (antibody, V domains shown)
VH: QIQLRQSGAGLMKPGASVKLSCKATGYTFTGYWIEWVKQRPGHDLEWIGEILPGSGTTNYNEKFKGKATFTADTSSNTAYMQLSSLTTEDSAIYYCARGGYYYGSSYDSWGQGTLVTVSS
VL: DIVLTQSPASLAVSLGQRATISCRASESVSIHGTHLMHWYQQKPGQPPKLLIYAASNLESGVPARFSGSGSETDFTLNIHPVEEEDAATYFCQQSIEDPYTFGGGTKLEIKR
notes: also called chimeric mAb BPC1856
B2: DT02-K-044-077 in Pascolizumab-(GSTVAAPS)3-T mAb-dAb format (bispecific antibody, part only; not given: Pascolizumab chains and linker, not shown: another chain or arm of the molecule; small tags and cut ends)
dAb: DIQMTQSPSSLSASVGDRVTITCRASQWIGPELAWYQQKPGKAPKLLIYHGSILQSGVPSRFSGSGSGTDFTLTISSLQPEDFATYYCQQYMYYPHTFGQGTKVEIKR
B3: DT02-K-044-083 in Pascolizumab-(GSTVAAPS)3-T mAb-dAb format (bispecific antibody, part only; not given: pascolizumab heavy and light chains, not shown: another chain or arm of the molecule; small tags and cut ends)
dAb: B2 dAb with A34H
B4: DT02-K-044-087 in Pascolizumab-(GSTVAAPS)3-T mAb-dAb format (bispecific antibody, part only; not given: pascolizumab chains and linker, not shown: another chain or arm of the molecule; large carriers; small tags and cut ends)
dAb: B2 dAb with A34M
B5: DT02-K-044-088 in Pascolizumab-(GSTVAAPS)3-T mAb-dAb format (bispecific antibody, part only; not given: pascolizumab chains and linker, not shown: another chain or arm of the molecule; large carriers; small tags and cut ends)
dAb: B2 dAb with A34N
B6: DT02-K-044-090 in Pascolizumab-(GSTVAAPS)3-T mAb-dAb format (bispecific antibody, part only; not given: pascolizumab chains and linker, not shown: another chain or arm of the molecule; large carriers; small tags and cut ends)
dAb: B2 dAb with A34Q
B7: DT02-K-044-092 in Pascolizumab-(GSTVAAPS)3-T mAb-dAb format (bispecific antibody, part only; not given: pascolizumab chains and linker, not shown: another chain or arm of the molecule; large carriers; small tags and cut ends)
dAb: B2 dAb with A34T
B8: DT02-K-044-093 in Pascolizumab-(GSTVAAPS)3-T mAb-dAb format (bispecific antibody, part only; not given: Pascolizumab chains and linker, not shown: another chain or arm of the molecule; large carriers; small tags and cut ends)
dAb: B2 dAb with A34V
B9: DT02-K-044-095 in Pascolizumab-(GSTVAAPS)3-T mAb-dAb format (bispecific antibody, part only; not given: pascolizumab chains and linker, not shown: another chain or arm of the molecule; large carriers; small tags and cut ends)
dAb: B2 dAb with A34Y
B10: DT02-K-044-229 in Pascolizumab-(GSTVAAPS)3-T mAb-dAb format (bispecific antibody, part only; not given: pascolizumab chains and linker, not shown: another chain or arm of the molecule; small tags and cut ends)
dAb: B2 dAb with A34S, H96A
B11: DT02-K-044-230 in Pascolizumab-(GSTVAAPS)3-T mAb-dAb format (bispecific antibody, part only; not given: pascolizumab chains and linker, not shown: another chain or arm of the molecule; small tags and cut ends)
dAb: B2 dAb with A34S, H96C
B12: DT02-K-044-232 in Pascolizumab-(GSTVAAPS)3-T mAb-dAb format (bispecific antibody, part only; not given: pascolizumab chains and linker, not shown: another chain or arm of the molecule; small tags and cut ends)
dAb: B2 dAb with A34S, H96E
B13: DT02-K-044-235 in Pascolizumab-(GSTVAAPS)3-T mAb-dAb format (bispecific antibody, part only; not given: pascolizumab chains and linker, not shown: another chain or arm of the molecule; small tags and cut ends)
dAb: B2 dAb with A34S, H96I
B14: DT02-K-044-238 in Pascolizumab-(GSTVAAPS)3-T mAb-dAb format (bispecific antibody, part only; not given: Pascolizumab chains and linker, not shown: another chain or arm of the molecule; small tags and cut ends)
dAb: B2 dAb with A34S, H96M
B15: DT02-K-044-239 in Pascolizumab-(GSTVAAPS)3-T mAb-dAb format (bispecific antibody, part only; not given: Pascolizumab chains and linker, not shown: another chain or arm of the molecule; large carriers; small tags and cut ends)
dAb: B2 dAb with A34S, H96N
B16: DT02-K-044-240 in Pascolizumab-(GSTVAAPS)3-T mAb-dAb format (bispecific antibody, part only; not given: pascolizumab chains and linker, not shown: another chain or arm of the molecule; large carriers; small tags and cut ends)
dAb: B2 dAb with A34S, H96P
B17: DT02-K-044-247 in Pascolizumab-(GSTVAAPS)3-T mAb-dAb format (bispecific antibody, part only; not given: pascolizumab chains and linker, not shown: another chain or arm of the molecule; large carriers; small tags and cut ends)
dAb: B2 dAb with A34S, H96Y

Each binder was assayed against human HGFδ5 (human) (UniProt P14210) (assay: Biacore SPR, antibody captured on anti-human IgG, HGF as analyte, 37 C, 1:1 model).
human HGFδ5 (human), sequence (P14210 other isoform, or with tags, fused parts or gaps mutant): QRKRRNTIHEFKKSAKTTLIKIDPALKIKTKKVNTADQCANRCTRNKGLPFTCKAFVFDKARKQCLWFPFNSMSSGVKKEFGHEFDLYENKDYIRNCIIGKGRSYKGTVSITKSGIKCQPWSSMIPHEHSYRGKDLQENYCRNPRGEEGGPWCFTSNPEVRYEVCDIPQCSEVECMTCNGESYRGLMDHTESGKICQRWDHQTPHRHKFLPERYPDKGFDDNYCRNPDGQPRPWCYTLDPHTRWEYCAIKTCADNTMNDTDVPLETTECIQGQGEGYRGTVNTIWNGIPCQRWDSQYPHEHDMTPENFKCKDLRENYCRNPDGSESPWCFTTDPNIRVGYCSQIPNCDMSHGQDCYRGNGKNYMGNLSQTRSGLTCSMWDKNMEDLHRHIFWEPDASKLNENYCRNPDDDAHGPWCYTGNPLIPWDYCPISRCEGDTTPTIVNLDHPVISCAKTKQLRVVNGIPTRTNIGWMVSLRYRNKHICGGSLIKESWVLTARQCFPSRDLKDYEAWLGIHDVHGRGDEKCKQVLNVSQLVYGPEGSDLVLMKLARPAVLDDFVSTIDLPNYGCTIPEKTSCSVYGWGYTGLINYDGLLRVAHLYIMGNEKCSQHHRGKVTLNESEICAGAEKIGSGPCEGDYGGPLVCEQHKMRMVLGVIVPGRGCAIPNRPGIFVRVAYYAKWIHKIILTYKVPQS

| Binder | Kd [nM] | koff [s⁻¹] | kon [M⁻¹ s⁻¹] |
| --- | --- | --- | --- |
| B1 | 0.042 | 1.78e-05 | 423000 |

What follows are binders tested against recombinant human VEGF (hVEGF-165) (human) (UniProt P15692) (assay: Proteon SPR estimate, mAb-dAb in transfection supernatant).

| Binder | Kd [nM] |
| --- | --- |
| B2 | 0.04 |
| B3 | 0.049 |
| B4 | 0.005 |
| B5 | 0.052 |
| B6 | 0.02 |
| B7 | 0.003 |
| B8 | 0.034 |
| B9 | 0.006 |
| B10 | 0.002 |
| B11 | 0.023 |
| B12 | 0.004 |
| B13 | 0.004 |
| B14 | 0.044 |
| B15 | 0.013 |
| B16 | 0.043 |
| B17 | 0.018 |

The binders below were run against T1, Human HGFv1 (human, UniProt P14210 32-728) (assay: Biacore SPR, antibody captured on anti-human IgG, HGF as analyte, 37 C, 1:1 model).
T1 construct: Biotinylated in the bridging ELISA; also called HGF (fl); HGF full length
T1 sequence (P14210 32-728 limits assumed, form in doubt): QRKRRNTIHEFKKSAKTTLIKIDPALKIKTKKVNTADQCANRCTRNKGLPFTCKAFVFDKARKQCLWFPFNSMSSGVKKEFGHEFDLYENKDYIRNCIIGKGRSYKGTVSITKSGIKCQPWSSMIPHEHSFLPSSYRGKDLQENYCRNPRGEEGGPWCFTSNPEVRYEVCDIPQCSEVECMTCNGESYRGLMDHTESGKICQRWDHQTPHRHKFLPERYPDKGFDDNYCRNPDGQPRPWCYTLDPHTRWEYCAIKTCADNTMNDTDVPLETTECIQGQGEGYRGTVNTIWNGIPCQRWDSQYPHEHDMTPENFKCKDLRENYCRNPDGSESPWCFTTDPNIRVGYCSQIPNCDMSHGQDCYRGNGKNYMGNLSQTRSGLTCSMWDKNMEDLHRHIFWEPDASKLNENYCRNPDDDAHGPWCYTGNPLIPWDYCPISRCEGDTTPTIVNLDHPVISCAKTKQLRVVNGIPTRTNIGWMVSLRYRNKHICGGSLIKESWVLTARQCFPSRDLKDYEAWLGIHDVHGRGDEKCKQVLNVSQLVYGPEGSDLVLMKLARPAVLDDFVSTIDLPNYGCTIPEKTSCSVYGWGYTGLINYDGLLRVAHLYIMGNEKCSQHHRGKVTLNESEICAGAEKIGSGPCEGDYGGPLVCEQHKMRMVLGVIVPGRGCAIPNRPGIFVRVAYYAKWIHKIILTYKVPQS

| Binder | Kd [nM] | koff [s⁻¹] | kon [M⁻¹ s⁻¹] |
| --- | --- | --- | --- |
| B1 | 0.034 | 1.49e-05 | 434000 |
